This passage reports binding signal results from patent publication US7416847, “In vitro peptide or protein expression library” (Isogenica Limited).

In series [1] the target is T1, P2 A protein (replication initiation protein A), His6-tagged (Bacteriophage P2, UniProt Q06419 Q06419:1-761).
T1 sequence: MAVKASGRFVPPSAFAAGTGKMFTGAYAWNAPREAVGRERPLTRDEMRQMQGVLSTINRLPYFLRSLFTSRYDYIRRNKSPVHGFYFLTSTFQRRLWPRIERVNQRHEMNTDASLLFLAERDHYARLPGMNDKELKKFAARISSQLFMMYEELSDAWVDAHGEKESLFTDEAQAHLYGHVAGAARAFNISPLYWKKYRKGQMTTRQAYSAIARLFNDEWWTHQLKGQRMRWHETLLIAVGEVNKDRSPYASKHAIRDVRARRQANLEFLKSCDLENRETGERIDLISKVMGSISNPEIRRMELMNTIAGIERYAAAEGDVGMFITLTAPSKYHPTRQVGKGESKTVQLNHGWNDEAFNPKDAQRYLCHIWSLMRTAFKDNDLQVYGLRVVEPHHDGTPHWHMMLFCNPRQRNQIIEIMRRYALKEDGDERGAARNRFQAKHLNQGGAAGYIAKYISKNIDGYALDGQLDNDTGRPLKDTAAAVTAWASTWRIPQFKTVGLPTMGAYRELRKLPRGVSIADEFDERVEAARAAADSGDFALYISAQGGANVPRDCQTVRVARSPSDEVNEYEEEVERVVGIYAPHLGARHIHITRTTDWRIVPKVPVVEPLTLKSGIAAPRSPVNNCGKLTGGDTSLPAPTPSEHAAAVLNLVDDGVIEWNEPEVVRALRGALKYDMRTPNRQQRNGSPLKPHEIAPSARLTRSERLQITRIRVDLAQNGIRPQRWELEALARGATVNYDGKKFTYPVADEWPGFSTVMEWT
The experiment in a line: pulldown; Ni-NTA selection of His::A plasmid over A plasmid pEN21; no enrichment when S30 extract omitted; whole plasmid assayed, listed sequence is only the attachment region; 1 mM imidazole wash. The following applies: tags: N-terminal His6 (expressed from pEE711 or pEN24 in E. coli T7 S30 extract, Promega). The text has this:
In the second experiment two new plasmid constructs pEN21 (an A gene construct with an amp resistance gene, see FIG. 1) and pEN24 (a His::A gene construct with a tag of six histidine residues and a kanamycin resistance gene, see FIG. 1) were subjected to the same type of experiment as in experiment 1 above, with the modifications indicated in the materials and methods section below. By employing this differential antibiotic resistance it is possible to score for the individual plasmid types directly as bacterial colonies.
Materials and Methods pEN21 and 24 are derivatives of pET21a and pET24a (Novagen Inc. USA). The pET21a and pET24a vectors differ only by their selectable marker (ampicillin and kanamycin resistance respectively). The pEN21 and pEN24 were constructed by restriction cutting of pEE709 and pEE711 with XbaI and BlpI which cuts out the A gene and flanking regions. pET21a and pET24a were cut with the same restriction enzymes. The A-fragments and new vector fragments were isolated from an agarose gel after electrophoresis by Spin-Bind columns (FMC). […] The plasmids were incubated for 30 minutes in the S30 extracts and the plasmid types were scored by differential antibiotic resistance using ampicillin (pEN21) and kanamycin (pEN24) plates after transformation of E. coli strain BK 2118 by electroporation. […]

Series [2] concerns the target T1, P2 A protein (replication initiation …). The experiment in a line: pulldown; Ni-NTA selection of His::A plasmid over A plasmid pEE709; cis covalent binding; whole plasmid assayed, listed sequence is only the attachment region; 50 mM Na-phosphate pH 8.0, 300 mM NaCl, 20 mM imidazole. The note with it: tags: N-terminal His6 (expressed from pEE711 or pEN24 in E. coli T7 S30 extract, Promega). Here is the method:
One ug of DNA of the pEE709 and the pEE711 plasmids respectively was added to the coupled transcription/translation extract kit (20 ul S30 premix, 5 ul aminoacid mix and 15 ul *E. Coli* T7 S30 extract system for circular DNA, Promega, USA). The transcription/translation was allowed to proceed for 60 minutes at 37° C. The extract mixture was diluted 12-fold in washing buffer (Qiagen; […] Na-phosphate pH 8.0, 300 mM NaCl, 20 mM imidazole, 1 mM PMSF) and subjected to Ni selection by addition to a Ni-NTA spin column (Qiagen, Germany) equilibrated with Buffer 1 (50 mM Na-phosphate pH 8.0, 300 mM NaCl, 20 mM imidazole) under non-denaturing conditions. […] High efficiency competent cells JM109 (Promega, USA) were transformed with a portion of the eluant and scored for ampicillin resistant colonies. […]
To determine the distribution (ratio) of the plasmid types in the eluant, the presence of plasmids was measured by transformation of strain JM 109 (Promega) for amp-resistance. Colonies were picked and analysed for their plasmid type (differentiated by size) after plasmid extraction followed by agarose gel electrophoresis. The ratio of pEE711 (His::A) to pEE709 (A) in the absence of Ni-column selection was also determined.

B1: pEN24 plasmid encoding His::A (contains P2 A attachment site) (dsDNA)
DNA 1: AGCGGCATCGCCGCGCCTCGGAGTCCTGTC
DNA 2: GACAGGACTCCGAGGCGCGGCGATGCCGCT
Regarding B1, the binding signal in series [1] amounted to 6.8 fold enrichment.

B2: pEE711 plasmid encoding His::A (contains P2 A attachment site) (dsDNA)
DNA 1: AGCGGCATCGCCGCGCCTCGGAGTCCTGTC
DNA 2: GACAGGACTCCGAGGCGCGGCGATGCCGCT
For B2, the binding signal in series [2] was found to be 13.3 fold enrichment.
